Measured values as given in PMC8058416, “Coordinated and High-Level Expression of Biosynthetic Pathway Genes Is Responsible for the Production of a Major Floral Scent Compound Methyl Benzoate in Hedychium coronarium” (Frontiers in Plant Science, 2021).

B1: HcBSMT2 (Hedychium coronarium) (protein)
chain: MGLKVEQALHMVGGSGETSYATNSRLQEKAIYRTKPVLATTIEEMYKGLLPEHMVVVDLGCSSGSNTFIVVSQVLDIIVELRRMMEMKKPLEVQFFLNDLPGNDFNYVFQSLDKFKNKVEEESKGELLVPYYVVGVAGSFYGRLFPCASVHFFHSSYCLMWLSQVPEELENDQGVSLNKGNIYWTETSSSQVEKAYREQYKKDFLTFLRSRYIELNIGGGMMLTFLGRRKRTPGHGDLCHLWRLLAEALNSMVLEEIIPEEKVSTFNLPIYGPSLEEVKSIIHHEGLFDLDRVEIFESSWDPFDDSGDDSFDLSNYTKSAKNVADCIRAVVEPLIVHQFGDVILDDLFTRYAQNVLKHLLKEKANHTILVIALKKRV
notes: full coding region in pET30a (EcoRI/NotI), E. coli Rosetta (DE3), Ni-NTA partially purified, His tag; 377 residues, 43 kDa predicted; Tyr157, Leu226, Trp242
B2: HcBSMT1 (Hedychium coronarium) (protein)
chain: MLPNTTIMEGEMSLKVEHALHMVGGTGETSYVANSRLQEKAIHQTKSLLAIAVEETYKALHSDQMVVVDLGCSSGPNTLLMLSHVLSVATKLPRRMELQFFLNDLPGNDFNCLFQSLEGFKKRLEGEIEGDLLVPYYVAGVAGSFYGRLFPRASVHLFHSSFCLMWLSQVPEGLKIEHGVPLNKGNIYWTETSLAKVEKAYQEQFQKDFSTFLKLRHTELNVGGRMVLVFVGRRKRTPGNGDFVHLYGLLGEALNSMVLEGIIQEEKVDTFNLPIYGASFEEVESVIHNEGVFDLDRAEIFESSWDPFDDSKDDIYAIPNYMRSGKNVANYIRAVVEPLIVHQFGTVILDDLFARYAHLVSKHLLKKKANHTILVFALKKKA
notes: full coding region in pET30a (EcoRI/NotI), E. coli Rosetta (DE3), Ni-NTA partially purified, His tag; 382 residues, 43 kDa predicted; Phe162, Val231, Tyr247

How the values were obtained:
[1] = substrate: O=C(O)c1ccccc1; assay: GC-MS (SPME) of methyl benzoate formed, Michaelis-Menten fit; format: biochemical, Hedychium coronarium; settings: SAM co-substrate (2 mM in standard assay), 100 mM KCl
[2] = substrate: O=C(O)c1ccccc1O; assay: GC-MS (SPME) of methyl salicylate formed, Michaelis-Menten fit; format: biochemical, Hedychium coronarium; settings: SAM co-substrate (2 mM in standard assay), 100 mM KCl; optimal reaction condition

Protein | Km ([1]; optimal condition (25 °C, optimum pH 6.5)) [µM] | Km [2] [µM] | Km ([1]; optimal condition (25 °C, optimum pH 6.0)) [µM]
B1 | 87.73 ± 7.03 | 26.73 ± 3.88 | –
B2 | – | – | 1456.17 ± 163.13
